According to the supplement of paper PMC9170038:

Test system: MS2 coat protein
Assay: apparent KD of MS2 coat protein; designed switch direction (-1 OFF switch, 1 ON switch): 1; higher = weaker reporter binding
Summary of the method: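 Designed RNA switches with common flanks were made on Illumina chips by stalled E. coli RNA polymerase. Titration with SNAP-549-labelled MS2 coat protein doubled from 0.7 or 1.5 nM up to 3 µM. Apparent KD is each design's median over clusters after curve-fitting normalised fluorescence.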

[1] = Eterna round: R95, input ligand: FMN 200 uM
[2] = Eterna round: R95, input ligand: microRNA oligo, concentration not stated
[3] = Eterna round: R95, input ligand: none
[4] = input ligand: microRNA oligo, concentration not stated

Sequence: AGUCCAGCCUGAGCUGGACAAAAGUAUGUACAUGAGGAUCACCCAUGUCAUGUACAAGCUUUUUGCUCGUCUUAAUA [Zipper 49 - 9] (puzzle: Sensor for hsa-mir-208a)
- apparent KD of MS2 coat protein [1]: 404 nM
- apparent KD of MS2 coat protein [2]: 24.1 nM
- apparent KD of MS2 coat protein [3]: 511 nM

Sequence: AGUCCAGCCUGAGCUGGACAUUAGCAUGUACAUGAGGAUCACCCAUGUCAUGUACAAGCUAUUUGCUCGUCUUAAAA [Mat - Sensor - JL mod - D76] (Eterna round: R96, puzzle: Sensor for hsa-mir-208a)
- apparent KD of MS2 coat protein (input ligand: FMN 200 uM): 592 nM
- apparent KD of MS2 coat protein [4]: 15.7 nM
- apparent KD of MS2 coat protein (input ligand: none): 455 nM

Sequence: UACAAUCUAUCUGAGGAUAUCAUGAAUAAAACAUGAGGAUCACCCAUGUGCAGGAAAACUGCAUAUGAGAAGGCAGAUAGAUUGU [salish99_ss2_r3_067] (puzzle: Same State 2)
- apparent KD of MS2 coat protein [1]: 45.9 nM
- apparent KD of MS2 coat protein [2]: 181 nM
- apparent KD of MS2 coat protein [3]: 556 nM

Sequence: GGCCGGAGUCAAGGAUAUGCUACCGUUUCGGUAGCAGAAGGUGAUCACAUGAGGAUCACCCAUGUUUACUGGGAGACCACGGCC [JL SSNG1 3.70] (Eterna round: R96, puzzle: Same State NG 1)
- apparent KD of MS2 coat protein (input ligand: FMN 200 uM): 105 nM
- apparent KD of MS2 coat protein [4]: 134 nM
- apparent KD of MS2 coat protein (input ligand: none): 166 nM

Sequence: GUAGCAUGCACCGAGGAUAUUCAUAUUAAAACAUGAGGAUCACCCAUGUAGGCCAAAAGGCCUUGGGAGAAGGCGGACAUGCUAC [Xeonanis - 21] (puzzle: Same State 2)
- apparent KD of MS2 coat protein [1]: 23.5 nM
- apparent KD of MS2 coat protein [2]: 178 nM
- apparent KD of MS2 coat protein [3]: 422 nM

Sequence: GUUAUACAUGAGGAUCACCCAUGUCAAUGUAGUCGAGGAUAUGGGCAGCUAUGAGGCGUACUAGAAGGCGAUGAGU [JL-ss1-3.14 ViennaUCT mod] (puzzle: Same State 1)
- apparent KD of MS2 coat protein [2]: 122 nM

Sequence: GGCCUGCCGCAAGGAUAUGAAGCUUUCGCUCCGUCAGAAGGUGCACAUGAGGAUCACCCAUGUAGGCAGGCCAAGAACUAAAAC [Veveanus] (Eterna round: R96, puzzle: Same State NG 1)
- apparent KD of MS2 coat protein (input ligand: FMN 200 uM): 213 nM
- apparent KD of MS2 coat protein [4]: 42 nM
- apparent KD of MS2 coat protein (input ligand: none): 123 nM

Sequence: GGAUCAUGACGAGGAUAUGGUACAUGAGGAUCACCCAUGUAUGUACCAUAACGCGUACGACGAAACCAGAAGGCGUCGUGGUCG [Mat - Same State NG 2 - JL mod - D40] (Eterna round: R96, puzzle: Same State NG 2)
- apparent KD of MS2 coat protein (input ligand: FMN 200 uM): 9.88 nM
- apparent KD of MS2 coat protein [4]: 21 nM
- apparent KD of MS2 coat protein (input ligand: none): 28 nM

Sequence: UCUUGGUUUUUGCUCGUUUUUUGUGUUGAACAUGAGGAUCACCCAUGUAUUGUACGGUCCGAUUUGAUAAUGGUCCA [JMF 41] (puzzle: Sensor for hsa-mir-208a)
- apparent KD of MS2 coat protein [1]: 36.3 nM
- apparent KD of MS2 coat protein [2]: 19.2 nM
- apparent KD of MS2 coat protein [3]: 37.4 nM

Sequence: GCUAGGAUUAAAGCCAACAUGAGGAUCACCCAUGUAUGUUGGUAGGAUAUCGUUUGCUUUGCAAACGAGAAGGGCUAACCUAGC [JL SSNG3 1.23] (Eterna round: R96, puzzle: Same State NG 3)
- apparent KD of MS2 coat protein (input ligand: FMN 200 uM): 70.6 nM
- apparent KD of MS2 coat protein [4]: 57.8 nM
- apparent KD of MS2 coat protein (input ligand: none): 62.1 nM

Sequence: UCAAGCUUUUUGCUCGUUUUAUGUGUUGAACAUGAGGAUCACCCAUGUAUUGUACGAUCCAGUUAGAUGGUAAUUUG [JR_SHM208A_Sub041] (puzzle: Sensor for hsa-mir-208a)
- apparent KD of MS2 coat protein [1]: 62.5 nM
- apparent KD of MS2 coat protein [2]: 140 nM
- apparent KD of MS2 coat protein [3]: 79.8 nM

Sequence: GGUCGGACUCACAUGAGGAUCACCCAUGUUGCGGAAACGCCAUAGGAUAUCUGUCCGAAAAGGUCAGAGAAGGGUGAACCGACC [Fiskers NG3ss - 65] (Eterna round: R96, puzzle: Same State NG 3)
- apparent KD of MS2 coat protein (input ligand: FMN 200 uM): 515 nM
- apparent KD of MS2 coat protein [4]: 391 nM
- apparent KD of MS2 coat protein (input ligand: none): 572 nM

Sequence: GCUCGAUGAAAGUCCUACAUGAGGAUCACCCAUGUACGUGGGCAGGAUAUCUACAUGCAGAAUGUAGAGAAGGGCCCGUCGAGC [SameState NG3 #58] (Eterna round: R96, puzzle: Same State NG 3)
- apparent KD of MS2 coat protein (input ligand: FMN 200 uM): 15.1 nM
- apparent KD of MS2 coat protein [4]: 16.5 nM
- apparent KD of MS2 coat protein (input ligand: none): 17.4 nM

Sequence: CCAUAACGGUGAGGAUAUUGUUGCGAUAAGUGACGAGAAGGCAUUCAUGUGAAAUAAACAUACAUGAGGAUCACCCAUGUUGUA [Omei SS(NG)1 Bv3] (Eterna round: R96, puzzle: Same State NG 1)
- apparent KD of MS2 coat protein (input ligand: FMN 200 uM): 22.6 nM
- apparent KD of MS2 coat protein [4]: 40.8 nM
- apparent KD of MS2 coat protein (input ligand: none): 50.2 nM

Sequence: AUACAGGAGCCACAUGAGGAUCACCCAUGUGACACGCAAAUGAAGGAUAUCCGACUCCAGACGAGGGAGAAGGUCACGGCGGGC [Eternabot solution 13] (Eterna round: R96, puzzle: Same State NG 3)
- apparent KD of MS2 coat protein (input ligand: FMN 200 uM): 16.6 nM
- apparent KD of MS2 coat protein [4]: 11.5 nM
- apparent KD of MS2 coat protein (input ligand: none): 20.1 nM

Sequence: AGCCUGAGUCGAGGAUAUUAUGGAUCCUUUAAUACAUGAGGAUCACCCAUGUAAUUAAUUAUACAUGAGAAGGUGACUCAGGCA [SSNG2/11-B1] (Eterna round: R96, puzzle: Same State NG 2)
- apparent KD of MS2 coat protein [4]: 186 nM

Sequence: AGAUCAUGACGAGGAUAUCCGACAUGAGGAUCACCCAUGUAUGUUGGAGGACGCGUACGUCCAAUGGAGAAGGCGUCGUGGUCA [JL SSNG2 1.04] (Eterna round: R96, puzzle: Same State NG 2)
- apparent KD of MS2 coat protein (input ligand: FMN 200 uM): 13.6 nM
- apparent KD of MS2 coat protein [4]: 11.8 nM
- apparent KD of MS2 coat protein (input ligand: none): 14.9 nM

Sequence: AGCACGAUUCGAGGAUAUGAGUCACAUGAGGAUCACCCAUGUCUAAUGGAUGGGACGGCCCAACCUCAGAAGGCGAUACCGGCA [Eternabot solution 24] (Eterna round: R96, puzzle: Same State NG 2)
- apparent KD of MS2 coat protein (input ligand: FMN 200 uM): 392 nM
- apparent KD of MS2 coat protein [4]: 307 nM
- apparent KD of MS2 coat protein (input ligand: none): 338 nM

Sequence: CGUAGGUAGCUGGAGGAUAUCCGAGUGGUAACAUGAGGAUCACCCAUGUGAUGAAAGGAACAUGAGGAGAAGGCUAGCUGCCUGC [JL-ss2-3.11 JL mod] (puzzle: Same State 2)
- apparent KD of MS2 coat protein [1]: 15.4 nM
- apparent KD of MS2 coat protein [2]: 29 nM
- apparent KD of MS2 coat protein [3]: 30.9 nM

Sequence: GACAAUUGACAUGAGGAUCACCCAUGUAUUACUUCGUGUUUUUGCUCGUCUUAUGUUAGGUUCGAAAGGAGCUUAAC [Polished] (puzzle: Sensor for hsa-mir-208a version 2)
- apparent KD of MS2 coat protein [1]: 68.6 nM
- apparent KD of MS2 coat protein [2]: 16.2 nM
- apparent KD of MS2 coat protein [3]: 86.7 nM

Sequence: ACAUGAGAUAGAGGAUAUAUUGUACCUACAUGUGACAUGAGGAUCACCCAUGUGGUAAGUAUGACAUAGAAGGCUAAGAUAUGU [Equivalance 82 - Jieux - Same State NG 2] (Eterna round: R96, puzzle: Same State NG 2)
- apparent KD of MS2 coat protein (input ligand: FMN 200 uM): 28.7 nM
- apparent KD of MS2 coat protein [4]: 55.6 nM
- apparent KD of MS2 coat protein (input ligand: none): 73.9 nM

Sequence: AGAUCAUGACGAGGAUAUGGAACAUGAGGAUCACCCAUGUAUGUUCCAUAACGCGAAUAAAGAAUCCAGAAGGCGUCGUGAUCA [Mat - Same State NG 2 - JL mod - D31] (Eterna round: R96, puzzle: Same State NG 2)
- apparent KD of MS2 coat protein (input ligand: FMN 200 uM): 13.1 nM
- apparent KD of MS2 coat protein [4]: 52.5 nM
- apparent KD of MS2 coat protein (input ligand: none): 85.5 nM

Sequence: GUGGCCCAGGCACAGGAUAUGUUUCUCGUAACAUGAGGAUCACCCAUGUGCCUAUGAGAUUUAAUGCAGAAGGGUGCACGCCACA [Mat - Same State 2 - Mod of UCT - D78] (puzzle: Same State 2)
- apparent KD of MS2 coat protein [1]: 18.8 nM
- apparent KD of MS2 coat protein [2]: 164 nM
- apparent KD of MS2 coat protein [3]: 199 nM

Sequence: AUAUAACAUGAGGAUCACCCAUGUCAACAAAGUCGAGGAUAUGGGCAAAUAAAAUAAGAACCAGAAGGCGAAUAAU [salish99_ss1_r3_047] (puzzle: Same State 1)
- apparent KD of MS2 coat protein [1]: 42.2 nM
- apparent KD of MS2 coat protein [2]: 462 nM
- apparent KD of MS2 coat protein [3]: 693 nM

Sequence: UAUGCACAUGAGGAUCACCCAUGUGAUAGAAUCACAGGAUAUCACCUCGGACGUGCGAUGUGAGAAGGGUGGUCGU [Same State 1 - Mod of Vinnie Anrelari v.4] (puzzle: Same State 1)
- apparent KD of MS2 coat protein [1]: 150 nM
- apparent KD of MS2 coat protein [2]: 63.1 nM
- apparent KD of MS2 coat protein [3]: 124 nM

Sequence: CAUCUAUACGUAGGAUAUGUAGGAUAUUCCUACAUGAGGAUCACCCAUGUUCGCAUGGAAGAAGGACAGAAGGACGAACUACUU [pwkr ssNG2 2FMN + 1F5.7] (Eterna round: R96, puzzle: Same State NG 2)
- apparent KD of MS2 coat protein (input ligand: FMN 200 uM): 320 nM
- apparent KD of MS2 coat protein [4]: 144 nM
- apparent KD of MS2 coat protein (input ligand: none): 21.5 nM

Sequence: GUAGCAUACCGAGGAUAUUCAUUACAUGAGGAUCACCCAUGUUUUAUAGGCCGAUUACGGCCUUGGGAGAAGGCGGAAUGCUAC [Xeonanis - 20 Mod27] (Eterna round: R96, puzzle: Same State NG 2)
- apparent KD of MS2 coat protein [4]: 9.7 nM

Sequence: AAAGGAUGAUGUUACAUGAGGAUCACCCAUGUAGUGAUAACUAAGGAUAUGUGUUAAACAAGUUAAUAGAAGGUAGGAUCAUUA [AK SSNG3-V2-7] (Eterna round: R96, puzzle: Same State NG 3)
- apparent KD of MS2 coat protein (input ligand: FMN 200 uM): 73.9 nM
- apparent KD of MS2 coat protein [4]: 52 nM
- apparent KD of MS2 coat protein (input ligand: none): 69.4 nM

Sequence: GUGGUCAGACAUGAGGAUCACCCAUGUGGAAUAAAUAAGGAGAAGGAUAUGGAAUAUAGGAUAUACCAGAAGGUCUGGUUGGUG (Eterna round: R96, puzzle: Same State NG 3)
- apparent KD of MS2 coat protein [4]: 55.8 nM

Sequence: AUUAAACAUGAGGAUCACCCAUGUCAACAAAGUCGAGGAUAUGGGCAAAUAAUAUAAUAACCAGAAGGCGAAUAAU [salish99_ss1_r3_081] (puzzle: Same State 1)
- apparent KD of MS2 coat protein [1]: 36.7 nM
- apparent KD of MS2 coat protein [2]: 28.1 nM
- apparent KD of MS2 coat protein [3]: 97 nM

Sequence: GGUAGGUUACUACCAAACAUGAGGAUCACCCAUGUAAAUGGGAAGGAUAUGGUACCUAUUUGGUACCAGAAGGUCUAAAUAAUU [Mat - Same State NG 3 - JL Mod - D94] (Eterna round: R96, puzzle: Same State NG 3)
- apparent KD of MS2 coat protein (input ligand: FMN 200 uM): 392 nM
- apparent KD of MS2 coat protein [4]: 821 nM
- apparent KD of MS2 coat protein (input ligand: none): 1020 nM
